From the supplement of paper PMC9112550, “Optimization of the antimicrobial peptide Bac7 by deep mutational scanning” (BMC Biology, 2022)

System: Escherichia coli TOP10
Experiment: shrunken log2 fold change of peptide-encoding DNA abundance (4.5 h post-induction vs induction); higher = less antimicrobial activity (less host growth inhibition)
Conditions: time post-induction: 4.5 h; library: site-saturation at positions 5, 18, 19, 20
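Also: peptides expressed intracellularly from a pBAD plasmid library in pooled LB shake-flask culture, induced with 0.3% L-arabinose, DNA abundance read by NGS, three biological replicates, DESeq2 with apeglm shrinkage.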

Sequence | shrunken log2 fold change
RRIRVRPPRLPRPRPRPKQYPRP | -0.558
RRIRVRPPRLPRPRPRPKSLPRP | -0.0854
RRIRVRPPRLPRPRPRPKTPPRP | 0.334
RRIRVRPPRLPRPRPRPKVVPRP | 0.174
RRIRVRPPRLPRPRPRPKWEPRP | 0.00343
RRIRVRPPRLPRPRPRPKWFPRP | -0.0567
RRIRVRPPRLPRPRPRPKWRPRP | 0.327
RRIRVRPPRLPRPRPRPLALPRP | -0.181
RRIRVRPPRLPRPRPRPLANPRP | -0.0581
RRIRVRPPRLPRPRPRPLCSPRP | -0.0335
RRIRVRPPRLPRPRPRPLDKPRP | 0.0163
RRIRVRPPRLPRPRPRPLFMPRP | -0.663
RRIRVRPPRLPRPRPRPLGYPRP | -0.0838
RRIRVRPPRLPRPRPRPLHSPRP | -0.0269
RRIRVRPPRLPRPRPRPLLRPRP | 0.0947
RRIRVRPPRLPRPRPRPLMRPRP | 0.515
RRIRVRPPRLPRPRPRPLNIPRP | -0.0458
RRIRVRPPRLPRPRPRPLPAPRP | 0.449
RRIRVRPPRLPRPRPRPLPWPRP | 0.196
RRIRVRPPRLPRPRPRPLQMPRP | 0.312
RRIRVRPPRLPRPRPRPLRMPRP | 0.191
RRIRVRPPRLPRPRPRPLRWPRP | 0.63
RRIRVRPPRLPRPRPRPLSIPRP | -0.233
RRIRVRPPRLPRPRPRPLSRPRP | -0.132
RRIRVRPPRLPRPRPRPLSTPRP | -0.0699

Sequence | shrunken log2 fold change
RRIRVRPPRLPRPRPRPLTAPRP | 0.106
RRIRVRPPRLPRPRPRPLTSPRP | 0.0775
RRIRVRPPRLPRPRPRPLTVPRP | 0.0473
RRIRVRPPRLPRPRPRPLVGPRP | 0.726
RRIRVRPPRLPRPRPRPLWLPRP | -0.00434
RRIRVRPPRLPRPRPRPLWNPRP | -0.197
RRIRVRPPRLPRPRPRPLYQPRP | -0.0431
RRIRVRPPRLPRPRPRPMAQPRP | 0.149
RRIRVRPPRLPRPRPRPMAVPRP | -0.0191
RRIRVRPPRLPRPRPRPMCEPRP | 0.0553
RRIRVRPPRLPRPRPRPMDQPRP | 0.188
RRIRVRPPRLPRPRPRPMGDPRP | -0.104
RRIRVRPPRLPRPRPRPMGNPRP | -0.0915
RRIRVRPPRLPRPRPRPMGWPRP | 0.202
RRIRVRPPRLPRPRPRPMGYPRP | -0.0568
RRIRVRPPRLPRPRPRPMHSPRP | -0.179
RRIRVRPPRLPRPRPRPMHYPRP | -0.266
RRIRVRPPRLPRPRPRPMIMPRP | -0.126
RRIRVRPPRLPRPRPRPMITPRP | 0.104
RRIRVRPPRLPRPRPRPMIYPRP | -0.38
RRIRVRPPRLPRPRPRPMKNPRP | -0.104
RRIRVRPPRLPRPRPRPMLDPRP | -0.215
RRIRVRPPRLPRPRPRPMMEPRP | 0.00705
RRIRVRPPRLPRPRPRPMMFPRP | -0.0953
RRIRVRPPRLPRPRPRPMMHPRP | -0.365

Sequence | shrunken log2 fold change
RRIRVRPPRLPRPRPRPMMMPRP | -0.0802
RRIRVRPPRLPRPRPRPMPRPRP | 0.24
RRIRVRPPRLPRPRPRPMRRPRP | 0.392
RRIRVRPPRLPRPRPRPMSHPRP | 0.171
RRIRVRPPRLPRPRPRPMSLPRP | 0.0447
RRIRVRPPRLPRPRPRPNACPRP | 0.215
RRIRVRPPRLPRPRPRPNARPRP | 0.102
RRIRVRPPRLPRPRPRPNDHPRP | -0.302
RRIRVRPPRLPRPRPRPNDRPRP | -0.0172
RRIRVRPPRLPRPRPRPNDVPRP | -0.116
RRIRVRPPRLPRPRPRPNFPPRP | 0.0508
RRIRVRPPRLPRPRPRPNFQPRP | -0.175
RRIRVRPPRLPRPRPRPNGDPRP | -0.187
RRIRVRPPRLPRPRPRPNGVPRP | -0.154
RRIRVRPPRLPRPRPRPNHVPRP | -0.3
RRIRVRPPRLPRPRPRPNLDPRP | -0.0165
RRIRVRPPRLPRPRPRPNLYPRP | -0.563
RRIRVRPPRLPRPRPRPNNDPRP | -0.335
RRIRVRPPRLPRPRPRPNQGPRP | -0.129
RRIRVRPPRLPRPRPRPNQLPRP | -0.188
RRIRVRPPRLPRPRPRPNQPPRP | -0.0412
RRIRVRPPRLPRPRPRPNQWPRP | -0.264
RRIRVRPPRLPRPRPRPNRNPRP | -0.238
RRIRVRPPRLPRPRPRPNRWPRP | -0.0283
RRIRVRPPRLPRPRPRPNSAPRP | 0.198
